Experimental data published in patent US7045576B2, “Adjuvants and copolymer compositions” (Cytrx Corporation, priority 1994, dated 2006).

Tests used:
ovalbumin (OVA) [1] = type: in vivo, C57BL/6 mice; settings: two immunizations with 15 μg of OVA in saline, no adjuvant, 4 weeks
Description: The immune responses induced by experimental subunit vaccine formulations based on a prototype immunogen combined with different adjuvants including CRL1005 were evaluated. Ovalbumin (OVA) was selected as to vaccine immunogen since dose levels of OVA for obtaining optimal and suboptimal immune responses had been established previously. […] OVA was administered at a dose of 15 ug/dose in a total volume of 100 ul. This dose of OVA had been established as non-immunogenic unless combined with an adjuvant.
Ninety mice (C57BL/6) were divided into 9 test and control groups of 10 mice per group. The mice were immunized twice with 28 days between immunizations. Vaccines were administered by needle injection subcutaneously (s.c.) in a total volume of 100 μ/dose.
To evaluate antibody responses, 4 weeks after the second immunization blood was collected via the retro-orbital sinus from 6 mice/group and sera was recovered for serological assay.

ovalbumin (OVA) [2] = experiment: Serum antibody responses to OVA after s.c., oral or nasal delivery; type: in vivo, C57BL/6 mice
Description: The utility of the CRL1005 copolymer for use as an oral vaccine adjuvant/delivery system using OVA as the vaccine antigen was evaluated. To ensure immunogenicity of the formulation, C57BLJ6 mice in the positive control group were immunized twice, at ten day intervals, subcutaneously (s.c.) with 25 μg/100 μl dose of OVA+/−1.25% CRL1005 in PBS. Mice immunized orally received 125 μg/500 μl dose of +/−1.25% CRL1005 in bicarbonate buffer, again at 10 day intervals. Mice were also immunized using nasal delivery since dilution or degradation in the stomach was considered to be a possibility. Mice received the same amounts of OVA and CRL1005 used for the s c injections but in a volume of 20 μl. Blood was collected as the source of serum antibodies for testing 14 days after the second immunization.

[3] = system: splenic mononuclear cells; type: cell-based, C57BL/6 mice; settings: immunization with OVA alone
EG-7.OVA cells = experiment: OVA-specific cytotoxic T-lymphocyte (CTL) 51Cr-release assay; type: cell-based, C57BL/6 mice; settings: after culture of spleen cells with irradiated EG-7.OVA; two immunizations
Description: FIG. 12 presents OVA-specific cytotoxic T-lymphocyte (CTL) responses induced in C57BL/6 mice following two immunizations (days 0 and 28) with OVA in saline (left) or formulated in aqueous solution with CRL1005 copolymer adjuvant (right). A standard ^51 chromium (CR)-release CTL assay was used with OVA-transfected EG-7.OVA cells and control EL-4 cells as the targets. Spleen cells were used as the source of precursor CTL, which were induced to mature to functional CTL effector cells, by culture for 6 days with irradiated EG-7.OVA or EL-4 cells. All testing was done in triplicate using a titration of Effector: Target cells, shown as ratios. Data are shown as the Percent Specific Release (Test Release−Spontaneous Release/Maximum Release−Spontaneous Release)×100.
Cytotoxic T-lymphocyte responses (CTL) were measured using a standard in vitro assay and two different cells for stimulator and target cells. The OVA.EG7 cell line was used as both target cells and antigen specific stimulator cells; cells were irradiated when used as stimulator cells. Control target cells were wild-type EL-4 cells, that are not transfected with OVA. Splenic mononuclear cells were used as the effector cells. These cells were assayed after in vitro stimulation to induce precursor CTL maturation to functional CTL effector cells.

Chain of ovalbumin (OVA) (P01012 whole entry): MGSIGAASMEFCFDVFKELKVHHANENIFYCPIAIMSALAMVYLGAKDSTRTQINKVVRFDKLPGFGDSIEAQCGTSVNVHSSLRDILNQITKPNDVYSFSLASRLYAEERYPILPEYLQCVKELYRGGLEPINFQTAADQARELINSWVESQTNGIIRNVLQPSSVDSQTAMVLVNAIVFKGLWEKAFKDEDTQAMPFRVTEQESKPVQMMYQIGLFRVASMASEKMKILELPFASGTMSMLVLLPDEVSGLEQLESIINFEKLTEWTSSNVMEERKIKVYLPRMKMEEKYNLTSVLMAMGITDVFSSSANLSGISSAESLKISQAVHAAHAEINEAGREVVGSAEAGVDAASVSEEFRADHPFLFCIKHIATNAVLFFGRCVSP

B1: OVA: ovalbumin, prototype vaccine immunogen given without adjuvant (protein, UniProt P01012 2-386, looked up)
Ovalbumin: GSIGAASMEFCFDVFKELKVHHANENIFYCPIAIMSALAMVYLGAKDSTRTQINKVVRFDKLPGFGDSIEAQCGTSVNVHSSLRDILNQITKPNDVYSFSLASRLYAEERYPILPEYLQCVKELYRGGLEPINFQTAADQARELINSWVESQTNGIIRNVLQPSSVDSQTAMVLVNAIVFKGLWEKAFKDEDTQAMPFRVTEQESKPVQMMYQIGLFRVASMASEKMKILELPFASGTMSMLVLLPDEVSGLEQLESIINFEKLTEWTSSNVMEERKIKVYLPRMKMEEKYNLTSVLMAMGITDVFSSSANLSGISSAESLKISQAVHAAHAEINEAGREVVGSAEAGVDAASVSEEFRADHPFLFCIKHIATNAVLFFGRCVSP
Ovalbumin (OVA) [1]
  OVA-specific antibody responses: not induced
Ovalbumin (OVA) [2]; nasal, 25 μg OVA +/- 1.25% CRL1005 in 20 μl, twice
  serum antibody response to OVA: failed to induce antibody responses
Ovalbumin (OVA) [2]; oral, 125 μg OVA +/- 1.25% CRL1005 in bicarbonate buffer, twice
  serum antibody response to OVA: failed to induce antibody responses
Ovalbumin (OVA) [2]; s.c., 25 μg OVA +/- 1.25% CRL1005, twice, 14 days after second immunization
  serum antibody response to OVA: effective
[3]
  cytokine responses: did not induce measurable cytokine responses
EG-7.OVA cells
  OVA-specific CTL activity: not detected
